Test results from the Immune Epitope Database (IEDB).
pKd: −log10 of the molar value.

How the values were obtained:
Assay in all cases: IEDB peptide-MHC binding, purified MHC/competitive/radioactivity; filed as Kd, often an IC50 or EC50 that approximates it; ≥ and ≤ were set here for values at or beyond the usual limits of such assays
[1] = target: HLA-A*03:01
[2] = target: HLA-A*11:01
[3] = target: HLA-A*31:01
[4] = target: HLA-A*33:01
[5] = target: HLA-A*68:01
[6] = target: HLA-A*02:06
[7] = target: HLA-A*02:03; settings: source organism: Dengue virus 1 Brazil/97-11/1997
[8] = source organism: Lassa virus Josiah
[9] = source organism: SARS coronavirus Tor2
[10] = source organism: Vaccinia virus WR
[11] = source organism: Mammarenavirus machupoense
[12] = source organism: Mammarenavirus whitewaterense

TAVAKCNEKH
pKd [1, 8]: ≤ 4.15
pKd [2, 8]: ≤ 4.16
pKd [3, 8]: ≤ 4.40
pKd [4, 8]: ≤ 4.21
pKd [5, 8]: ≤ 4.15

SFNHVLKRK
pKd [1, 9]: 6.95
pKd [2, 9]: 5.75
pKd [3, 9]: 6.43
pKd [4, 9]: 5.17
pKd [5, 9]: ≤ 4.61

NARMATMLEY
pKd [1, 10]: 6.77
pKd [2, 10]: 7.46
pKd [3, 10]: 6.13
pKd [4, 10]: ≤ 4.16
pKd [5, 10]: 6.34

AIMQVFFGY
pKd [1, 9]: 9.16
pKd [2, 9]: 8.86
pKd [3, 9]: 6.34
pKd [4, 9]: 5.85
pKd [5, 9]: 6.72

RTLILAPTRV
pKd ([6]; source organism: Dengue virus 2 Jamaica/1409/1983): 6.33

YLCGFIKQK
pKd [1, 9]: 6.29
pKd [2, 9]: 5.78
pKd [3, 9]: 5.46
pKd [4, 9]: ≤ 4.33
pKd [5, 9]: 5.22

MVASDVCKK
pKd [1, 10]: 6.58
pKd [2, 10]: 6.82
pKd [3, 10]: 5.77
pKd [4, 10]: 5.16
pKd [5, 10]: 7.18

SSFDYCSTNH
pKd [1, 11]: 4.77
pKd [2, 11]: 5.72
pKd [3, 11]: 5.20
pKd [4, 11]: 4.81
pKd [5, 11]: 6.60

QTPTKLMNK
pKd [1, 10]: 6.68
pKd [2, 10]: 6.51
pKd [3, 10]: ≤ 4.64
pKd [4, 10]: ≤ 4.11
pKd [5, 10]: 6.75

NQILEENMEV
pKd ([6]; source organism: Dengue virus 4 Philippines/H241/1956): 7.54

ASGQRCHFIK
pKd [1, 10]: 6.03
pKd [2, 10]: 7.90
pKd [3, 10]: 5.83
pKd [4, 10]: ≤ 4.20
pKd [5, 10]: 5.29

SLVENNFFTK
pKd [1, 10]: 6.64
pKd [2, 10]: 8.01
pKd [3, 10]: 6.41
pKd [4, 10]: 6.15
pKd [5, 10]: 6.92

IFSPENKAFK
pKd [1, 10]: 7.02
pKd [2, 10]: 6.12
pKd [3, 10]: 6.16
pKd [4, 10]: 5.61
pKd [5, 10]: 6.74

GTSWFITQR
pKd [1, 9]: 6.50
pKd [2, 9]: 8.19
pKd [3, 9]: 8.08
pKd [4, 9]: 5.91
pKd [5, 9]: 7.89

QLVFNSISAR
pKd [1, 10]: 6.52
pKd [2, 10]: 6.52
pKd [3, 10]: 6.95
pKd [4, 10]: 6.14
pKd [5, 10]: 7.31

IMSMMNITR
pKd [1, 10]: 6.06
pKd [2, 10]: 7.21
pKd [3, 10]: 6.29
pKd [4, 10]: 8.39
pKd [5, 10]: 7.52

EIINFTISMR
pKd [1, 10]: 5.79
pKd [2, 10]: 5.69
pKd [3, 10]: 6.37
pKd [4, 10]: 8.11
pKd [5, 10]: 8.95

KTWMDIEGR
pKd [1, 8]: 5.07
pKd [2, 8]: 5.95
pKd [3, 8]: 6.92
pKd [4, 8]: 5.77
pKd [5, 8]: 5.74

IMSIGFEAR
pKd [1, 10]: 5.31
pKd [2, 10]: 5.50
pKd [3, 10]: 7.52
pKd [4, 10]: 6.44
pKd [5, 10]: 6.66

ALCESITLA
pKd [7]: 7.76

KSAGFPFNK
pKd [1, 9]: 8.06
pKd [2, 9]: 8.41
pKd [3, 9]: 7.50
pKd [4, 9]: 5.31
pKd [5, 9]: 7.16

VQIGEYTFEK
pKd [1, 9]: 6.66
pKd [2, 9]: 7.66
pKd [3, 9]: 5.78
pKd [4, 9]: 4.95
pKd [5, 9]: 6.46

LTRNPAWRK
pKd [1, 9]: 6.65
pKd [2, 9]: 5.40
pKd [3, 9]: 5.30
pKd [4, 9]: 5.80
pKd [5, 9]: 5.85

RLLACLCKHK
pKd [1, 9]: 9.66
pKd [2, 9]: 8.15
pKd [3, 9]: 7.60
pKd [4, 9]: 5.35
pKd [5, 9]: 5.07

TLAILTALR
pKd [1, 9]: 5.44
pKd [2, 9]: 5.35
pKd [3, 9]: 6.49
pKd [4, 9]: 6.08
pKd [5, 9]: 6.93

TLNHVLALKY
pKd [1, 10]: 6.77
pKd [2, 10]: 5.94
pKd [3, 10]: ≤ 4.16
pKd [4, 10]: ≤ 4.28
pKd [5, 10]: 4.88

NAKVGDDVK
pKd [1, 10]: ≤ 4.11
pKd [2, 10]: 6.41
pKd [3, 10]: 5.00
pKd [4, 10]: 4.77
pKd [5, 10]: 6.32

SLSPNDTTWI
pKd [1, 12]: ≤ 4.46
pKd [2, 12]: ≤ 4.16
pKd [3, 12]: ≤ 4.49
pKd [4, 12]: ≤ 4.22
pKd [5, 12]: ≤ 4.15

SFLRKIGDK
pKd [1, 10]: 5.12
pKd [2, 10]: 5.41
pKd [3, 10]: 6.61
pKd [4, 10]: ≤ 4.58
pKd [5, 10]: ≤ 4.46
